Assay [1] concerns the target T1, full-length PSTPIP tagged with the FLAG epitope at the C-terminus (murine, UniProt P97814 1-415).
T1 construct: In vitro transcribed/translated in rabbit reticulocyte lysate, or expressed in COS cells
T1 sequence: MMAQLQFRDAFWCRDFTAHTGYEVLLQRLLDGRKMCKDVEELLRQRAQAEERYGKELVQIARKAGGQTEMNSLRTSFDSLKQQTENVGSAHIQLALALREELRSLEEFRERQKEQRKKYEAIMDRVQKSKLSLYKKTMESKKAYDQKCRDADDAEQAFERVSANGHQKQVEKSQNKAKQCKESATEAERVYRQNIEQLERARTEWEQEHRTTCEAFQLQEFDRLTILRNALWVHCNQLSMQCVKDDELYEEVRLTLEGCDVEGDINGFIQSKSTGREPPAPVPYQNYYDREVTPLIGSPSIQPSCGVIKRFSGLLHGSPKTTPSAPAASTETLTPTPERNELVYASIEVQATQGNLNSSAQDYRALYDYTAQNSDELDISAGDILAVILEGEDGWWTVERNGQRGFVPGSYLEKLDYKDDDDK
In words: peptide competition of the GST-PST-rich+CTH PTP HSCF pulldown of in vitro translated PSTPIP. The procedure: This was reacted for 1 hour at 4° C. and then the resin washed 6 times in HEPES/Triton binding buffer before SDS gel electrophoresis. The peptides were synthesized on an automated Milligen 9050 Peptide Synthesizer using standard solid phase chemistry with FMOC protected amino acids on a p-alkoxybenzyl alcohol resin. Dried peptides were re-suspended in the HEPES/Triton Binding buffer at a concentration of 10 mg/ml. Peptide inhibition was performed by adding the peptide first to the in vitro translation product and then the GST-fusion followed by the GSH-Sepharose. The binding/washing steps were as previously described. The peptides synthesized and the PTPs they were derived from were:
The region of PTP HSCF which interacts with PSTPIP was identified by producing deletion mutants of the enzyme missing either the 20 amino acid C-terminal domain which is highly conserved in all of the PEST PTPs (Yang et al. (1993) supra, Matthews et al., (1992) supra, Cheng et al., (1996) supra, Huang et al., (1996) supra, Aoki et al., (1996) Dosil et al., (1996) supra and Kim et al., (1996) supra) or both this domain as well as the longer proline, serine and threonine rich region C-terminal to the catalytic domain (FIG. 4A). FIG. 4B-C reveal that deletion of the C-terminal 20 amino acid homology domain of PTP HSCF completely abolished the interaction between PTP HSCF and PSTPIP. Because this region is conserved in all PEST PTPs, it is possible that both PTP PEST (Yang et al., (1993) supra) as well as PTP PEP (Matthews et al., (1992) supra) also interact with PSTPIP. In order to examine this possibility, as well as to examine if the 20 amino acid C-terminal region is sufficient for this interaction, 20 residue long peptides derived from the homologous C-terminal domain of three PEST PTPs were used to compete with the interaction between PTP HSCF and PSTPIP (FIG. 4D). In this form of the assay, a GST fusion derived from the PST-rich and C-terminal homology regions of the phosphatase was used to precipitate in vitro translated PSTPIP in the presence of varying amounts of peptides. […]

Assay [2] has as its system CHO cells. Briefly: Confocal microscopy of PST PIP forms expressed in CHO cells. It counts as cell-based, Chinese hamster. As to conditions: transfected CHO cells. The protocol: Confocal microscopy was performed as previously described (Spencer et al, (1997), supra). Briefly, CHO cells in chamber slides were transfected using Lipofectamine and the indicated plasmids. 48 hours later, cells were fixed in formaldehyde and stained with an anti-FLAG epitope specific antibody (Kodak) and Fluorescein-Phalloidin (Molecular Probes). Anti-Flag stained cells were washed and stained with Cy3-conjugated sheep anti-mouse IgG. Stained cells were observed using Molecular Dynamics Confocal Microscope™ (2001) and analyzed with ImageSpace™ software (Molecular Dynamics).

Assay [3] concerns the target T2, PTP HSCF (Mus musculus, UniProt Q61152).
T2 construct: the PST (and C-terminal homolog) of PTP HSCF (amino acids 304-453); made in house; host or cells: E. coli DH5-alpha
T2 sequence (Q61152 304-453): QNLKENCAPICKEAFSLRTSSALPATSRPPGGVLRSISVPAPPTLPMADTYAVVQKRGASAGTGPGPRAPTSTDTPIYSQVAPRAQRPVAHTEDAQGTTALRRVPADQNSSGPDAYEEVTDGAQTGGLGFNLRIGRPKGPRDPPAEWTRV
In words: In vitro GST pull-down binding of PST PIP forms to PTP HSCF. The conditions noted are these: in vitro. The procedure: The binding was carried out according to the method of Wong and Johnson (Wong et al., J. Biol. Chem. 271(35):20981-20984 (1996)). Briefly, 1 μg of plasmid with either the PSTPIP protein or PTP HSCF under the control of the Sp6 promoter was in vitro transcribed/translated using the Promega™ TnT Rabbit Reticulocyte™ system. Samples were diluted in 50 mM HEPES, pH 7.2, 1% triton X 100, 10% glycerol, 100 mM NaCl, 5 mM EDTA and 2 μg/ml each of leupeptin, pepstatin, aprotinin, and PMSF. […] This was reacted for 1 hour at 4° C. and then the resin washed 6 times in HEPES/Triton binding buffer before SDS gel electrophoresis. The peptides were synthesized on an automated Milligen 9050 Peptide Synthesizer using standard solid phase chemistry with FMOC protected amino acids on a p-alkoxybenzyl alcohol resin. Dried peptides were re-suspended in the HEPES/Triton Binding buffer at a concentration of 10 mg/ml. Peptide inhibition was performed by adding the peptide first to the in vitro translation product and then the GST-fusion followed by the GSH-Sepharose. The binding/washing steps were as previously described. The peptides synthesized and the PTPs they were derived from were: • PXXP-HSCF: 432[…]451 (PTP HSCF) (SEQ ID NO:20), • PXXP-PEP: 782GFGNRFSKPKGPRNPPSAW800 (PTP PEP) (SEQ ID NO:21), • PXXP-PEST: 761[…]780 (PTP PEST) SEQ ID NO:22), • PXXP-CONTROL: 334[…]353 (PTP HSCF) (SEQ ID NO:23).
In vitro binding analyses between various PTP HSCF and PST PIP constructs were performed as previously described (Spencer et al, (1997), supra). Briefly, plasmids were transcribed and translated in vitro using the TnT Rabbit Reticulocyte Lysate System (Promega). Samples were diluted in 50 mM HEPES, pH 7.2, 1% triton X-100, 10% glycerol, 100 mM NaCl, and 2 μg/ml each of leupeptin, pepstatin, aprotinin and PMSF (lysis buffer). Samples were than reacted with GST fusion proteins at various concentrations, and the bound proteins were centrifuged using glutathione-sepharose beads and analyzed on SDS polyacrylamide gels. C-terminally-derived peptide inhibition studies were performed by incubating the GST fusion protein binding reactions in the presence of 10 μg/ml of the indicated peptides. Peptides were produced by FMOC-protected amino acids as previously described (Spencer et al, (1997), supra). In vivo interactions between various forms of PTP HSCF and PST PIP were also performed as previously described (Spencer et al, (1997), supra). Briefly, COS cells were transfected with various constructs, and after 48 hours, lysates were prepared and immunoprecipitated with antibodies to either the FLAG epitope contained at the C-terminus of PST PIP or an HA epitope contained at the N-terminus of PTP HSCF. The resultant blots were probed with anti-FLAG to detect PST PIP, anti-HA to detect PTP HSCF or anti-phosphotyrosine to detect levels of this modified amino acid in each protein.

Assay [4] addresses T3, PSTPIP (Mus musculus, UniProt P97814).
T3 construct: containing the full-length cDNA for PSTPIP (amino acids 2-415) was subcloned into pGEX4T-2; made in house; host or cells: E. coli DH5-alpha
T3 sequence (P97814 2-415): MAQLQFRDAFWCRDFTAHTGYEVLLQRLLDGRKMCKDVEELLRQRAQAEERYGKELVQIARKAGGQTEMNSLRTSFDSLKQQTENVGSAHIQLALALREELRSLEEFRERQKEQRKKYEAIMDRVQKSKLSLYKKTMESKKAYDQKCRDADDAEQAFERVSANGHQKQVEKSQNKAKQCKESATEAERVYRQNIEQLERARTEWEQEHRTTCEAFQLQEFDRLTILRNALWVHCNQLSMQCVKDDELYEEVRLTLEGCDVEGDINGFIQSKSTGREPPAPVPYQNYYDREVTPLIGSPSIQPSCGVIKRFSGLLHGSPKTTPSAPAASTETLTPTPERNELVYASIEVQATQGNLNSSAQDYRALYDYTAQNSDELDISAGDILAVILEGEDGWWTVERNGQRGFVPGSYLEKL
Briefly: In vitro GST pull-down binding of PTP HSCF forms to GST PSTPIP. Details: species or system murine. The conditions noted are these: 1 or 10 μg/ml GST PST PIP. The procedure:
The binding was carried out according to the method of Wong and Johnson (Wong et al., J. Biol. Chem. 271(35):20981-20984 (1996)). Briefly, 1 μg of plasmid with either the PSTPIP protein or PTP HSCF under the control of the Sp6 promoter was in vitro transcribed/translated using the Promega™ TnT Rabbit Reticulocyte™ system. Samples were diluted in 50 mM HEPES, pH 7.2, 1% triton X 100, 10% glycerol, 100 mM NaCl, 5 mM EDTA and 2 μg/ml each of leupeptin, pepstatin, aprotinin, and PMSF. […] This was reacted for 1 hour at 4° C. and then the resin washed 6 times in HEPES/Triton binding buffer before SDS gel electrophoresis. The peptides were synthesized on an automated Milligen 9050 Peptide Synthesizer using standard solid phase chemistry with FMOC protected amino acids on a p-alkoxybenzyl alcohol resin. Dried peptides were re-suspended in the HEPES/Triton Binding buffer at a concentration of 10 mg/ml. Peptide inhibition was performed by adding the peptide first to the in vitro translation product and then the GST-fusion followed by the GSH-Sepharose. […]
In vitro binding analyses between various PTP HSCF and PST PIP constructs were performed as previously described (Spencer et al, (1997), supra). […] Samples were than reacted with GST fusion proteins at various concentrations, and the bound proteins were centrifuged using glutathione-sepharose beads and analyzed on SDS polyacrylamide gels. […]

B1: PXXP-HSCF peptide (PTP HSCF 432-451) (peptide)
peptide: GFNLRIGRPKGPRDPPAEWT
notes: Synthetic, FMOC chemistry; also called proline rich peptide derived from the C-terminal homology region of PTP HSCF
Consider B1, for which the “lowest peptide concentration that effectively blocks the interaction” value in assay [1] was roughly 800 nM.

B2: PXXP-PEP peptide (PTP PEP 782-800) (peptide)
peptide: GFGNRFSKPKGPRNPPSAW
notes: Synthetic, FMOC chemistry; also called proline rich peptide derived from the C-terminal homology region of PTP PEP
Regarding B2, in assay [1], the “lowest peptide concentration that effectively blocks the interaction” value was roughly 800 nM.

B3: delta 25: PST PIP missing the N-terminal 25 amino acids (protein)
chain: LQRLLDGRKMCKDVEELLRQRAQAEERYGKELVQIARKAGGQTEMNSLRTSFDSLKQQTENVGSAHIQLALALREELRSLEEFRERQKEQRKKYEAIMDRVQKSKLSLYKKTMESKKAYDQKCRDADDAEQAFERVSANGHQKQVEKSQNKAKQCKESATEAERVYRQNIEQLERARTEWEQEHRTTCEAFQLQEFDRLTILRNALWVHCNQLSMQCVKDDELYEEVRLTLEGCDVEGDINGFIQSKSTGREPPAPVPYQNYYDREVTPLIGSPSIQPSCGVIKRFSGLLHGSPKTTPSAPAASTETLTPTPERNELVYASIEVQATQGNLNSSAQDYRALYDYTAQNSDELDISAGDILAVILEGEDGWWTVERNGQRGFVPGSYLEKLDYKDDDDK
As to B3, in assay [2], the “cellular localization of PST PIP forms (assay for correct folding)” value is “predominantly co-localized with the cortical actin cytoskeleton”. Besides, the “binding of in vitro translated PST PIP forms to GST fusion of C-terminal 149 amino acids of PTP HSCF” value in assay [3] was “capable of interacting”.

B4: deletion of the C-terminal 20 amino acid homology domain of PTP HSCF: PTP HSCF deletion mutant missing the C-terminal homology domain (protein, UniProt Q99952 1-440, looked up, fragment)
chain: MSRSLDSARSFLERLEARGGREGAVLAGEFSDIQACSAAWKADGVCSTVAGSRPENVRKNRYKDVLPYDQTRVILSLLQEEGHSDYINGNFIRGVDGSLAYIATQGPLPHTLLDFWRLVWEFGVKVILMACREIENGRKRCERYWAQEQEPLQTGLFCITLIKEKWLNEDIMLRTLKVTFQKESRSVYQLQYMSWPDRGVPSSPDHMLAMVEEARRLQGSGPEPLCVHCSAGCGRTGVLCTVDYVRQLLLTQMIPPDFSLFDVVLKMRKQRPAAVQTEEQYRFLYHTVAQMFCSTLQNASPHYQNIKENCAPLYDDALFLRTPQALLAIPRPPGGVLRSISVPGSPGHAMADTYAVVQKRGAPAGAGSGTQTGTGTGTGARSAEEAPLYSKVTPRAQRPGAHAEDARGTLPGRVPADQSPAGSGAYEDVAGGAQTGGLGF
Take B4: in assay [4], the “binding of in vitro translated PTP HSCF forms to GST PSTPIP” value is recorded as “completely abolished the interaction”.

B5: PXXP-PEST peptide (PTP PEST 761-780) (peptide)
peptide: GFGNRCGKPKGPRDPPSEWT
notes: Synthetic, FMOC chemistry; also called proline rich peptide derived from the C-terminal homology region of PTP PEST
For the molecule B5, the “lowest peptide concentration that effectively blocks the interaction” value in assay [1] was roughly 800 nM.

The values are drawn from US6887705B1, “Tyrosine phosphorylated cleavage furrow-associated proteins (PSTPIPs)” (Genentech, Inc., priority 1997, dated 2005).
